Test results published in article PMC4795164.

Substrate: N[C@@H](CSSC[C@H](N)C(=O)O)C(=O)O
Test: purified protein
Format: biochemical, Homo sapiens
Conditions: 100 µM AdoMet, 50 µM PLP, 100 mM HEPES pH 7.4, 37 °C

B1: human CBS (cystathionine beta-synthase) (Homo sapiens) (protein)
chain: MPSETPQAEVGPTGCPHRSGPHSAKGSLEKGSPEDKEAKEPLWIRPDAPSRCTWQLGRPASESPHHHTAPAKSPKILPDILKKIGDTPMVRINKIGKKFGLKCELLAKCEFFNAGGSVKDRISLRMIEDAERDGTLKPGDTIIEPTSGNTGIGLALAAAVRGYRCIIVMPEKMSSEKVDVLRALGAEIVRTPTNARFDSPESHVGVAWRLKNEIPNSHILDQYRNASNPLAHYDTTADEILQQCDGKLDMLVASVGTGGTITGIARKLKEKCPGCRIIGVDPEGSILAEPEELNQTEQTTYEVEGIGYDFIPTVLDRTVVDKWFKSNDEEAFTFARMLIAQEGLLCGGSAGSTVAVAVKAAQELQEGQRCVVILPDSVRNYMTKFLSDRWMLQKGFLKEEDLTEKKPWWWHLRVQELGLSAPLTVLPTITCGHTIEILREKGFDQAPVVDEAGVILGMVTLGNMLSSLLAGKVQPSDQVGKVIYKQFKQIRLTDTLGRLSHILEMDHFALVVHEQIQYHSTGKSSQRQMVFGVVTAIDLLNFVAAQERDQK
Km: 1300 ± 100 µM | Vmax: 0.102 µmol/min/mg | kcat: 0.11 s⁻¹ | kcat/Km: 85 M⁻¹ s⁻¹
